Consider three molecules from patent US20160228502A1 (UNIVERSITY OF MARYLAND BALTIMORE, published 2016).

Where no end group is shown, it is not given here.

Sequences and labels used below:
B2: sarco(endo)plasmic reticulum Ca^2+-ATPase 1 (SERCA1) (enzyme)
chain: MEAAHSKSTEECLAYFGVSETTGLTPDQVKRHLEKYGHNELPAEEGKSLWELVIEQFEDLLVRILLLAACISFVLAWFEEGEETITAFVEPFVILLILIANAIVGVWQERNAENAIEALKEYEPEMGKVYRADRKSVQRIKARDIVPGDIVEVAVGDKVPADIRILSIKSTTLRVDQSILTGESVSVIKHTEPVPDPRAVNQDKKNMLFSGTNIAAGKALGIVATTGVSTEIGKIRDQMAATEQDKTPLQQKLDEFGEQLSKVISLICVAVWLINIGHFNDPVHGGSWIRGAIYYFKIAVALAVAAIPEGLPAVITTCLALGTRRMAKKNAIVRSLPSVETLGCTSVICSDKTGTLTTNQMSVCKMFIIDKVDGDFCSLNEFSITGSTYAPEGEVLKNDKPIRSGQFDGLVELATICALCNDSSLDFNETKGVYEKVGEATETALTTLVEKMNVFNTEVRNLSKVERANACNSVIRQLMKKEFTLEFSRDRKSMSVYCSPAKSSRAAVGNKMFVKGAPEGVIDRCNYVRVGTTRVPMTGPVKEKILSVIKEWGTGRDTLRCLALATRDTPPKREEMVLDDSSRFMEYETDLTFVGVVGMLDPPRKEVMGSIQLCRDAGIRVIMITGDNKGTAIAICRRIGIFGENEEVADRAYTGREFDDLPLAEQREACRRACCFARVEPSHKSKIVEYLQSYDEITAMTGDGVNDAPALKKAEIGIAMGSGTAVAKTASEMVLADDNFSTIVAAVEEGRAIYNNMKQFIRYLISSNVGEVVCIFLTAALGLPEALIPVQLLWVNLVTDGLPATALGFNPPDLDIMDRPPRSPKEPLISGWLFFRYMAIGGYVGAATVGAAAWWFMYAEDGPGVTYHQLTHFMQCTEDHPHFEGLDCEIFEAPEPMTMALSVLVTIEMCNALNSLSENQSLMRMPPWVNIWLLGSICLSMSLHFLILYVDPLPMIFKLKALDLTQWLMVLKISLPVIGLDEILKFIARNYLEDPEDERRK
notes: One entry covers native rabbit SERCA1 (SR vesicles) and untagged recombinant rabbit SERCA1 (COS7/HEK293 extracts and microsomes); The assay field of each row says which source was used; also called SERCA1-pcDNA3.1

Assay [1] deals with B2. Kind of assay: cell-based or functional assay.
Assay [2] concerns the target Maltose Binding Protein (MBP) alone (UniProt P0AEX9 27-392 = MBP). Nature of the assay: blot overlay on rabbit SR vesicle proteins. The procedure:
A FLAG empty vector was used as controls. […] 7B. Amylose resin bound to bacterially expressed sAnk1₂₉₋₁₅₅-MBP fusion protein was incubated with COS7 extracts transfected to express SERCA1. MBP protein alone was used as a control. […] Ponceau staining was used as a loading control (top panel). 7C. SR vesicle preparations were used for blot overlay assays. Blots were first overlaid with sAnk1₂₉₋₁₅₅-MBP or MBP protein alone, followed by incubation with antibodies to MBP. […] Ponceau staining was used as a loading control (right panel).
The blot overlay assay was performed as described (50, 69) with minor modifications. […] The generation and purification of these fusion proteins were as described (51). A separate section of the membrane was reserved to identify SERCA1. Blots were washed extensively with overlay buffer and once with TBS, pH 7.4, plus 0.5% Tween-20 (TBST). The blots were blocked in TBST+4% non-fat dry milk for 4 h at 25° C. and probed with antibodies to MBP (overlay portion) and SERCA1 (non-overlay portion). Immunoblots were completed as described above.

The target of assay [3] is B2. Nature of the assay: coIP with antibodies to JPH1 from rabbit SR vesicles. The procedure:
CoIP experiments were performed as described in (60), with preparations of SR vesicles isolated by the method of Eletr and Inesi (61, 62) from rabbit skeletal muscle from the back and hind limb (Pel-Freez, Rogers, Ark.), or from crude membrane extracts of COS7 cells prepared as described (59, 63). For the latter, COS7 cells were harvested in PBS at 48 h following transfection, collected by centrifugation, frozen in liquid N₂ and stored at −80° C. until needed. Briefly, pellets were homogenized with 30 strokes of a glass Dounce homogenizer in resuspension buffer (0.25 M sucrose, 10 mM Tris-HCl, pH 7.5, 20 mM CaCl₂, 3 mM 2-mercaptoethanol, 150 mM KCl), and solubilized with an equal volume of lysis buffer (40 mM HEPES-NaOH, pH 7.5, 300 mM NaCl, 2 mM EDTA, 1% Tween 20). SR vesicles were prepared for coIP by the same methods for resuspension and solubilization. The muscle and cell extracts were pre-cleared with 50 μL uncoated Dynabeads. The pre-cleared extracts were mixed with antibody-coated Dynabeads (5 ug antibody/50 uL beads) and incubated at 4° C. for 4 h. […] Proteins in the samples were separated by SDS-PAGE and analyzed via immunoblot as described (64).
The interaction between SERCA1 and sAnk1 was first analyzed by co-immunoprecipitation (coIP), performed with SR vesicles prepared from rabbit skeletal muscle (see Methods). […]

B1: N-terminal FLAG-tagged sarcolipin (NF-SLN) (other, rabbit, UniProt P42532 1-31, looked up, not shown: small tags and cut ends)
chain: {FLAG tag}-MERSTRELCLNFTVVLITVILIWLLVRSYQY
modifications: not fully specified
Consider B1, for which the “ΔKCa2+ relative to SERCA1 Alone” value in assay [1] is -0.37 pCa^2+ units.
As for B2, the binding result in assay [2] is reported as “no binding (tested: 3 µg/mL)”.

B3: junctophilin-1 (JPH1), native, rabbit skeletal muscle SR vesicles (other, UniProt Q9GKY8 1-662, looked up)
chain: MTGGRFDFDDGGTYCGGWEEGKAHGHGICTGPKGQGEYSGSWSHGFEVVGGYTWPSGNTYQGYWAQGKRHGLGVETKGKWMYRGEWSHGFKGRYGVRQSLCTPARYEGTWSNGLQDGYGVETYGDGGTYQGQWAGGMRHGYGVRQSVPYGMATVIRSPLRTSLASLRSEQSNGSVLHDAAAAADTPTGTRGGFVLNFHADAELAGKKKGGLFRRGSLLGSMKLRKSESKSSISSKRSSVRSDAAMSRISSSDANSTISFGDVDCDFCPVEDHVDATTTETYMGEWKNDKRNGFGISERSNGMKYEGEWANNKRHGYGCTVFPDGSKEEGKYKNNILVRGIRKQLIPIRNTKTREKVDRAIEGAQRAAAMARTKVEIANSRTAHARAKADAADQAALAARQECDIARAVARELSPDFYQPGPDYIKQRLQEGVDAKENPEEKVPAKPPTPKESPHFYRKGTTPPGSPEASPKYSRSPQPSPPKPAKKQNPSSGARLNQDKRGVAEEQVTAIVNKPLTSKAPTKEVGAAVSQSKYSGRHHVPNPSNGELHSQYHGYYVKLHAPQHPPVDAEDDDRSSPSSSALVHKPSPNKWSPPKSVTKPVAKESKAEPKAKKSELAIPKNPASNDSCPSMEREANSGPNSVMIVLVMLLNIGLAILFVHFLT
B3: in assay [3], the binding result is given as “no binding”.
